T1: MBP-Rif2-min (S. cerevisiae Rif2 F8E P10N), Q06208
T1 chain: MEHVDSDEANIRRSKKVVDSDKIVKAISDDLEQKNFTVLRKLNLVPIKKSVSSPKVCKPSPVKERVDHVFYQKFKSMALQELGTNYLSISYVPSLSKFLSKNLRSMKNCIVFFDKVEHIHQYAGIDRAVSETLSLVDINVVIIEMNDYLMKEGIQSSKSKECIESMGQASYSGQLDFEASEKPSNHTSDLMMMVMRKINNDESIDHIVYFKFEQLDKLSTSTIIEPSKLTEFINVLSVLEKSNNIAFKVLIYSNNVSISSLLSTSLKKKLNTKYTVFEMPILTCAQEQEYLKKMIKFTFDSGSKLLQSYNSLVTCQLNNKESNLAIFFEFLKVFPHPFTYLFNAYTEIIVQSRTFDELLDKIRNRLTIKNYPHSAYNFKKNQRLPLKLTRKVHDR

T2: Rif2-min (Saccharomyces cerevisiae, UniProt Q06208 1-395, F8E;P10N)
T2 sequence: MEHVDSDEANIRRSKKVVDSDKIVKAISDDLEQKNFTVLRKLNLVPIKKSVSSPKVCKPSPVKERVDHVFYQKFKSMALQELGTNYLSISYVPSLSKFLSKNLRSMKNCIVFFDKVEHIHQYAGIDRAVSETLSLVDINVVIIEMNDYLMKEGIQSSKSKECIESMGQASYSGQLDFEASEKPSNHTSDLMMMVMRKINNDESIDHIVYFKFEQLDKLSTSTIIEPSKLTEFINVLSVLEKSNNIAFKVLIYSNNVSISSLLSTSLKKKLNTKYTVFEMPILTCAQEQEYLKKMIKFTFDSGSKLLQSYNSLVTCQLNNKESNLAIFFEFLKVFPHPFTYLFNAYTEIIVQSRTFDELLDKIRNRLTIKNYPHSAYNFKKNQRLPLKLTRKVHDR

T3: Rif2 (Saccharomyces cerevisiae, UniProt Q06208 1-395)
T3 sequence: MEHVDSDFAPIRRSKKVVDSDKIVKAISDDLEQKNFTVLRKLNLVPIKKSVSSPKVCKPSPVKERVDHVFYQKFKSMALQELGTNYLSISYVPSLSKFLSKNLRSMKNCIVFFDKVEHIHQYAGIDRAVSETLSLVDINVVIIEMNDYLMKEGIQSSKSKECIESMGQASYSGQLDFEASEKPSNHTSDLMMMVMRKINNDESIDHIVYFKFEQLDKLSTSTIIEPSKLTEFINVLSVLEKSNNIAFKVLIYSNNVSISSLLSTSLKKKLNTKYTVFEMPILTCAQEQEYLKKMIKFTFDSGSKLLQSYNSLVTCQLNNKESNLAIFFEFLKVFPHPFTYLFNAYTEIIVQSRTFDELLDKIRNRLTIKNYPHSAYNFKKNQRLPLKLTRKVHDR


What was measured:
[1] = molecular target: T1, MBP-Rif2-min (S. cerevisiae Rif2 F8E …); test: pull-down (amylose-immobilized MBP-Rif2-min bait, Western blot with anti-Rad50 antibody, quantified); settings: chain shown with the change; three independent blots; mean with SEM; parent: est. 100; read off a plot
[2] = molecular target: T2, Rif2-min; test: EMSA; 5 mM Mg2+, 1 mM Mn2+, 1 mM ATP; 25 mM Tris-acetate pH 7.5, 1 mM DTT, 5 mM Mg acetate, 1 mM Mn acetate, 0.25 mg/ml BSA, 1 mM PEP, 1 mM ATP, 80 U/ml pyruvate kinase, 1 nM DNA, 30 C 30 min; 6% PAGE in TAE; settings: protein: recombinant; tags: C-terminal His (N-terminal MBP cleaved with PreScission); label: 32P; blunt
[3] = molecular target: T3, Rif2; test: as above; settings: protein: recombinant; tags: C-terminal His (N-terminal MBP cleaved with PreScission); label: 32P; blunt

Binder | percent of parent (Relative value) [1] | binding result [2] | binding result [3]
m3; m1 Rad50:K81I; Rif2:F8E; Rif2:P10N (protein) MSAIYKLSIQGIRSFDSNDRETIEFGKPLTLIVGMNGSGKTTIIECLKYATTGDLPPNSKGGVFIHDPKITGEKDIRAQVILAFTSANGLNMIVTRNIQLLMKKTTTTFKTLEGQLVAINNSGDRSTLSTRSLELDAQVPLYLGVPKAILEYVIFCHQEDSLWPLSEPSNLKKKFDEIFQAMKFTKALDNLKSIKKDMSVDIKLLKQSVEHLKLDKDRSKAMKLNIHQLQTKIDQYNEEVSEIESQLNEITEKSDKLFKSNQDFQKILSKVENLKNTKLSISDQVKRLSNSIDILDLSKPDLQNLLANFSKVLMDKNNQLRDLETDISSLKDRQSSLQSLSNSLIRRQGELEAGKETYEKNRNHLSSLKEAFQHKFQGLSNIENSDMAQVNHEMSQFKAFISQDLTDTIDQFAKDIQLKETNLSDLIKSITVDSQNLEYNKKDRSKLIHDSEELAEKLKSFKSLSTQDSLNHELENLKTYKEKLQSWESENIIPKLNQKIEEKNNEMIILENQIEKFQDRIMKTNQQADLYAKLGLIKKSINTKLDELQKITEKLQNDSRIRQVFPLTQEFQRADLEMDFQKLFINMQKNIAINNKKMHELDRRYTNALYNLNTIEKDLQDNQKSKEKVIQLLSENLPEDCTIDEYNDVLEETELSYKTALENLKMHQTTLEFNRKALEIAERDSCCYLCSRKFENESFKSKLLQELKTKTDANFEKTLKDTVQNEKEYLHSLRLLEKHIITLNSINEKIDNSQKCLEKAKEETKTSKSKLDELEVDSTKLKDEKELAESEIRPLIEKFTYLEKELKDLENSSKTISEELSIYNTSEDGIQTVDELRDQQRKMNDSLRELRKTISDLQMEKDEKVRENSRMINLIKEKELTVSEIESSLTQKQNIDDSIRSKRENINDIDSRVKELEARIISLKNKKDEAQSVLDKVKNERDIQVRNKQKTVADINRLIDRFQTIYNEVVDFEAKGFDELQTTIKELELNKAQMLELKEQLDLKSNEVNEEKRKLADSNNEEKNLKQNLELIELKSQLQHIESEISRLDVQNAEAERDKYQEESLRLRTRFEKLSSENAGKLGEMKQLQNQIDSLTHQLRTDYKDIEKNYHKEWVELQTRSFVTDDIDVYSKALDSAIMKYHGLKMQDINRIIDELWKRTYSGTDIDTIKIRSDEVSSTVKGKSYNYRVVMYKQDVELDMRGRCSAGQKVLASIIIRLALSETFGANCGVIALDEPTTNLDEENIESLAKSLHNIINMRRHQKNFQLIVITHDEKFLGHMNAAAFTDHFFKVKRDDRQKSQIEWVDINRVTY | 14 |  | 
PC1253C/PC1253B 50 bp dsDNA (dsDNA, 3'-terminal biotin (stated for the nuclease substrate; strand(s) ambiguous; streptavidin not mentioned for EMSA)) DNA 1: AACGTCATAGACGATTACATTGCTAGGACATCTTTGCCCACGTTGACCCA DNA 2: TGGGTCAACGTGGGCAAAGATGTCCTAGCAATGTAATCGTCTATGACGTT |  | binds | binds
